Assay results from paper doi:10.1101/2021.02.16.431378.
Values joined by “and” are separate entries in the source; they are usually repeats but may differ in a detail not shown here. Identical values can stand only once.

Columns and labels:
[1] = target: N-terminally 6xHis-tagged HU-B co-expressed from pET-Duet-1 (E. coli K-12 sub-strain MG1655) (UniProt P0ACF4); test: SEC
[2] = target: N-terminally 6xHis-tagged HU-B co-expressed from pET-Duet-1 (E. coli K-12 sub-strain MG1655) (UniProt P0ACF4); test: pull-down
[3] = target: N-terminally 6xHis tagged HU-B (histidine-tagged E. coli HU-B) (E. coli K-12 sub-strain MG1655) (UniProt P0ACF4); test: SEC
[4] = target: N-terminally 6xHis tagged HU-B (histidine-tagged E. coli HU-B) (E. coli K-12 sub-strain MG1655) (UniProt P0ACF4); test: SEC; remark: listed apart in the source
[5] = target: N-terminally 6xHis tagged HU-B (histidine-tagged E. coli HU-B) (E. coli K-12 sub-strain MG1655) (UniProt P0ACF4); test: cross-linking
[6] = target: N-terminally 6xHis tagged HU-B (histidine-tagged E. coli HU-B) (E. coli K-12 sub-strain MG1655) (UniProt P0ACF4); test: cross-linking; remark: listed apart in the source
[7] = target: N-terminally 6xHis tagged HU-B (histidine-tagged E. coli HU-B) (E. coli K-12 sub-strain MG1655) (UniProt P0ACF4); test: cross-linking; remark: listed apart in the source
[8] = target: N-terminally 6xHis tagged HU-A (histidine-tagged E. coli HU-A) (E. coli K-12 sub-strain MG1655) (UniProt P0ACF0); test: SEC
[9] = target: N-terminally 6xHis tagged HU-A (histidine-tagged E. coli HU-A) (E. coli K-12 sub-strain MG1655) (UniProt P0ACF0); test: SEC; remark: listed apart in the source
[10] = target: N-terminally 6xHis tagged HU-A (histidine-tagged E. coli HU-A) (E. coli K-12 sub-strain MG1655) (UniProt P0ACF0); test: cross-linking
[11] = target: T1, TmRITC-labelled histidine-tagged HU-B, P0ACF4; test: FRET or BRET
T1 chain: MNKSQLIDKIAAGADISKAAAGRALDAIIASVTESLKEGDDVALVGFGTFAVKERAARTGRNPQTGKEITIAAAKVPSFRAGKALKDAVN

6xHis-HU-A = 6xHis-HU-A (Escherichia coli K-12 MG1655, UniProt P0ACF0 1-90); test: EMSA
6xHis-HU-B = target: T2, 6xHis-HU-B (Escherichia coli K-12 MG1655, UniProt P0ACF4 1-90); test: EMSA
T2 sequence: T1 chain

Tag-RFP fused to HU-A without a 6xHis tag (RFP-HU-A) (from UniProt P0ACF0 1-90) (natural protein)
heterodimer as percent of the total overexpressed HU population [1]: < 5% | heterodimer as percent of the total overexpressed HU population [2]: < 5% | percent of the total protein purified [2]: < 10%

N-terminally 6xHis-tagged HU-B co-expressed from pET-Duet-1 (from UniProt P0ACF4 1-90) (natural protein)
stoichiometry N [1]: 2

N-terminally 6xHis tagged HU-B (histidine-tagged E. coli HU-B) (from UniProt P0ACF4 1-90) (natural protein)
stoichiometry N [3]: 2 | stoichiometry N [4]: 2 | stoichiometry N [5]: 2 and 4 | stoichiometry N [6]: 2 and 4 | stoichiometry N [7]: 2 and 4

N-terminally 6xHis tagged HU-A (histidine-tagged E. coli HU-A) (from UniProt P0ACF0 1-90) (natural protein)
stoichiometry N [8]: 2 | stoichiometry N [9]: 2 | stoichiometry N [10]: 2

B1: FITC-labelled histidine-tagged HU-A (protein)
chain: MNKTQLIDVIAEKAELSKTQAKAALESTLAAITESLKEGDAVQLVGFGTFKVNHRAERTGRNPQTGKEIKIAAANVPAFVSGKALKDAVK
percent heterodimers formed after mixing [11]: less than 5%

B2: 4WJ-DNA (Holliday junction) (structured_DNA)
DNA 1: CCCTATAACCCCTGCATTGAATTCCTGTCTGATAA
DNA 2: GTAGTCGTGATAGGTGCAGGGGTTATAGGG
DNA 3: AACAGTAGCTCTTAATTCGAGCTCGCGCCCTATCACGACTA
DNA 4: TTTATCAGACTGGAATTCAAGCGCGAGCTCGAATAAGAGCTACTGT
binding result (6xHis-HU-A): binds | binding result (6xHis-HU-B): binds
